Measured values: article PMC3909490

Target: FITC-casein (UniProt P02662)
Experiment: fluorescence polarisation

Chain of UniProt P02662 (P02662 16-214): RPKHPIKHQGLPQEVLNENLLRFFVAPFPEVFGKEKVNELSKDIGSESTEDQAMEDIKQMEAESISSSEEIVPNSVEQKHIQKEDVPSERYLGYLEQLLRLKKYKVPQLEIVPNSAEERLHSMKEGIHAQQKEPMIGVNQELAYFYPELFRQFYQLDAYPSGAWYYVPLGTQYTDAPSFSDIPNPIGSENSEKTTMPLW

Row | Kd | Substance
1 | 80 nM | Hsp104^A503V (from UniProt P31539 1-908) (natural protein)
2 | 65 nM | Hsp104^WT (from UniProt P31539 1-908) (natural protein)
